These results are taken from article PMC10397247.

One assay has as its target T1, 4H2109-AA.
T1 chain: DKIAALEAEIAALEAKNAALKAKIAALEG
Kind of assay: two-hybrid library CCmax.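 Also: natural log of median RNA to DNA barcode read ratio; higher means stronger binding.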

In another assay the target is T2, 4H2162-AA.
T2 chain: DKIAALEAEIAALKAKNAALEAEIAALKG
The assay can be described thus: two-hybrid library CCmax.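 Also: natural log of median RNA to DNA barcode read ratio; higher means stronger binding.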 The settings on record: mean of both orientations.

A further assay deals with T3, 4H2253-AA.
T3 chain: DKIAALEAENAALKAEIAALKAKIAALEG
Kind of assay: two-hybrid library CCmax.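 Also: natural log of median RNA to DNA barcode read ratio; higher means stronger binding.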 The settings on record: mean of both orientations.

For a further assay, the target named is T4, 4H2274-AA.
T4 chain: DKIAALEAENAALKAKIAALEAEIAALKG
The assay can be described thus: two-hybrid library CCmax.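 Also: natural log of median RNA to DNA barcode read ratio; higher means stronger binding.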 The settings on record: mean of both orientations.

The target of a further assay is T5, 4H2330-AA.
T5 chain: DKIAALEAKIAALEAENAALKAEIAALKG
The assay can be described thus: two-hybrid library CCmax.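 Also: natural log of median RNA to DNA barcode read ratio; higher means stronger binding.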 The settings on record: mean of both orientations.

The target of a further assay is T6, 4H2389-AA.
T6 chain: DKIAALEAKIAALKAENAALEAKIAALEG
Kind of assay: two-hybrid library CCmax.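 Also: natural log of median RNA to DNA barcode read ratio; higher means stronger binding.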 The settings on record: mean of both orientations.

Another assay has as its target T7, 4H2438-AA.
T7 chain: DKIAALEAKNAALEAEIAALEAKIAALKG
Kind of assay: two-hybrid library CCmax. The settings on record: mean of both orientations.

Another assay addresses T8, 4H2473-AA.
T8 chain: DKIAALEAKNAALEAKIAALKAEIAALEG
Kind of assay: two-hybrid library CCmax. The settings on record: mean of both orientations.

The next assay deals with T9, 4H2649-AA.
T9 chain: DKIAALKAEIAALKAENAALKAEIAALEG
Kind of assay: two-hybrid library CCmax. The settings on record: mean of both orientations.

Another assay addresses T10, 4H2698-AA.
T10 chain: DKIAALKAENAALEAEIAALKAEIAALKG
Kind of assay: two-hybrid library CCmax. The settings on record: mean of both orientations.

For the next assay, the target named is T11, 4H2725-AA.
T11 chain: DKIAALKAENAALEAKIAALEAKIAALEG
Kind of assay: two-hybrid library CCmax. The settings on record: mean of both orientations.

The next assay concerns the target T12, 4H2865-AA.
T12 chain: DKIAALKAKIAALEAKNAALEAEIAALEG
The assay can be described thus: two-hybrid library CCmax. The settings on record: mean of both orientations.

The target of another assay is T13, 4H3009-AA.
T13 chain: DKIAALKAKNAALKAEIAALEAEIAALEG
Kind of assay: two-hybrid library CCmax. The conditions noted are these: mean of both orientations.

A further assay has as its target T14, 4H3016-AA.
T14 chain: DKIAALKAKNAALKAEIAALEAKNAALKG
Kind of assay: two-hybrid library CCmax. The conditions noted are these: mean of both orientations.

Another assay has as its target T15, 4H310-AA.
T15 chain: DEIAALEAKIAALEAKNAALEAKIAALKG
The assay can be described thus: two-hybrid library CCmax. The settings on record: mean of both orientations.

Another assay addresses T16, 4H3120-AA.
T16 chain: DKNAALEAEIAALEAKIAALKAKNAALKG
Kind of assay: two-hybrid library CCmax. The conditions noted are these: mean of both orientations.

The target in another assay is T17, 4H3130-AA.
T17 chain: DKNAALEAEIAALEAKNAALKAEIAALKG
Kind of assay: two-hybrid library CCmax. The settings on record: mean of both orientations.

The next assay concerns the target T18, 4H3165-AA.
T18 chain: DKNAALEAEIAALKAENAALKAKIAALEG
Kind of assay: two-hybrid library CCmax. The conditions noted are these: mean of both orientations.

The next assay has as its target T19, 4H3381-AA.
T19 chain: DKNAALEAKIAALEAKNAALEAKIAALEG
The assay can be described thus: two-hybrid library CCmax. The settings on record: mean of both orientations.

Another assay addresses T20, 4H3395-AA.
T20 chain: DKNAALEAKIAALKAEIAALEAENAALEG
The assay can be described thus: two-hybrid library CCmax. The conditions noted are these: mean of both orientations.

The target in another assay is T21, 4H3410-AA.
T21 chain: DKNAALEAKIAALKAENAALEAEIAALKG
The assay can be described thus: two-hybrid library CCmax. The settings on record: mean of both orientations.

The next assay addresses T22, 4H3590-AA.
T22 chain: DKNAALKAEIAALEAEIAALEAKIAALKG
Kind of assay: two-hybrid library CCmax. The conditions noted are these: mean of both orientations.

The target of the next assay is T23, 4H3697-AA.
T23 chain: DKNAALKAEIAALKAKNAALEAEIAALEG
Kind of assay: two-hybrid library CCmax. The conditions noted are these: mean of both orientations.

The target in a further assay is T24, 4H3753-AA.
T24 chain: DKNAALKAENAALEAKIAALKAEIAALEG
The assay can be described thus: two-hybrid library CCmax. The conditions noted are these: mean of both orientations.

Another assay concerns the target T25, 4H3865-AA.
T25 chain: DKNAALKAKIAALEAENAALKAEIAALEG
The assay can be described thus: two-hybrid library CCmax.

A further assay concerns the target T26, 4H458-AA.
T26 chain: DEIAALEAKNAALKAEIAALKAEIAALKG
Kind of assay: two-hybrid library CCmax. The settings on record: mean of both orientations.

Another assay has as its target T27, 4H485-AA.
T27 chain: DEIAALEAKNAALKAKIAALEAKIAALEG
The assay can be described thus: two-hybrid library CCmax. The settings on record: mean of both orientations.

A further assay has as its target T28, 4H536-AA.
T28 chain: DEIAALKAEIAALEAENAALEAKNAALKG
Kind of assay: two-hybrid library CCmax. The conditions noted are these: mean of both orientations.

The target in the next assay is T29, 4H570-AA.
T29 chain: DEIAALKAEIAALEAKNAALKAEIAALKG
The assay can be described thus: two-hybrid library CCmax. The conditions noted are these: mean of both orientations.

The next assay addresses T30, 4H629-AA.
T30 chain: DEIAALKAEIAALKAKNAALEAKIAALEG
The assay can be described thus: two-hybrid library CCmax. The conditions noted are these: mean of both orientations.

A further assay deals with T31, 4H710-AA.
T31 chain: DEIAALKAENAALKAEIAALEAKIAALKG
The assay can be described thus: two-hybrid library CCmax. The conditions noted are these: mean of both orientations.

The next assay addresses T32, 4H745-AA.
T32 chain: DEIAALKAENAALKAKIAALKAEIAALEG
The assay can be described thus: two-hybrid library CCmax. The conditions noted are these: mean of both orientations.

The target in the next assay is T33, 4H797-AA.
T33 chain: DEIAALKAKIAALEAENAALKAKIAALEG
The assay can be described thus: two-hybrid library CCmax. The settings on record: mean of both orientations.

The next assay concerns the target T34, 4H850-AA.
T34 chain: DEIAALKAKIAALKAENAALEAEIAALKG
The assay can be described thus: two-hybrid library CCmax. The settings on record: mean of both orientations.

In another assay the target is T35, 4H891-AA.
T35 chain: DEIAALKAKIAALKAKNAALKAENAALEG
The assay can be described thus: two-hybrid library CCmax. The conditions noted are these: mean of both orientations.

Another assay addresses T36, 4H909-AA.
T36 chain: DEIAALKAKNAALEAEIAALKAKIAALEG
Kind of assay: two-hybrid library CCmax. The conditions noted are these: mean of both orientations.

In a further assay the target is T37, 4H930-AA.
T37 chain: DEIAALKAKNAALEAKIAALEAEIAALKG
Kind of assay: two-hybrid library CCmax. The conditions noted are these: mean of both orientations.

For another assay, the target named is T38, 4H94-AA.
T38 chain: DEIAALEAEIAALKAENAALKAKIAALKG
The assay can be described thus: two-hybrid library CCmax. The conditions noted are these: mean of both orientations.

For a further assay, the target named is T39, 4H3817-bH.
T39 chain: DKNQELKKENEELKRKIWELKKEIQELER
Kind of assay: two-hybrid library CCNG1.

The next assay deals with T40, 4H3858-bH.
T40 chain: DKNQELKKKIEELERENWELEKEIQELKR
Kind of assay: two-hybrid library CCNG1.

A further assay concerns the target T41, 4H3974-bH.
T41 chain: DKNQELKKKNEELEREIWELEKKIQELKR
The assay can be described thus: two-hybrid library CCNG1.

Another assay deals with T42, 4H4073-bH.
T42 chain: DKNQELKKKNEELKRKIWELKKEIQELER
The assay can be described thus: two-hybrid library CCNG1.

The next assay concerns the target T43, 4H570-bH.
T43 chain: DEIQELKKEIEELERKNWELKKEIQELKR
The assay can be described thus: two-hybrid library CCNG1.

Another assay concerns the target T44, 4H584-bH.
T44 chain: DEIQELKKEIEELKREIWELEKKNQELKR
Kind of assay: two-hybrid library CCNG1.

In the next assay the target is T45, 4H619-bH.
T45 chain: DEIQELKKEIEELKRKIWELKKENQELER
The assay can be described thus: two-hybrid library CCNG1.

In the next assay the target is T46, 4H850-bH.
T46 chain: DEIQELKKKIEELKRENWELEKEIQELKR
Kind of assay: two-hybrid library CCNG1.

A further assay addresses T47, 4H906-bH.
T47 chain: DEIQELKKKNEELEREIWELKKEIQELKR
Kind of assay: two-hybrid library CCNG1.

For the molecule DKIAALEAEIAALEAKNAALKAKIAALEG [4H2109-AA], the interaction score with 4H2109-AA is 1.67; with 4H2162-AA, 0.55; with 4H2253-AA it was -1.76; in the assay with 4H2274-AA it was -1.47; in the assay with 4H2330-AA it was 0.0427; with 4H2389-AA, 2.49. In addition, the interaction score with 4H2438-AA is -0.365; in the assay with 4H2473-AA, -0.356; with 4H2649-AA, 1.26; with 4H2698-AA, 1.53; with 4H2725-AA, 0.465; with 4H2865-AA it was 2.17. In addition, the interaction score with 4H3009-AA was -0.233; in the assay with 4H3016-AA, -1.16; in the assay with 4H310-AA, 1.94; with 4H3120-AA it was -0.474; with 4H3130-AA, -1.05; in the assay with 4H3165-AA, -0.391. In addition, the interaction score was -0.283 in the assay with 4H3381-AA; -0.63 in the assay with 4H3395-AA; 1.87 in the assay with 4H3410-AA; 1.21 with 4H3590-AA; -0.415 in the assay with 4H3697-AA; 0.644 with 4H3753-AA. Also, the interaction score is -0.488 in the assay with 4H3865-AA; -1.45 in the assay with 4H458-AA; -0.723 with 4H485-AA; 0.839 in the assay with 4H536-AA; -0.239 with 4H570-AA; 1.09 with 4H629-AA. Besides, the interaction score with 4H710-AA was -1.26; in the assay with 4H745-AA, -0.947; in the assay with 4H797-AA, 1.44; with 4H850-AA it was 2.07; with 4H891-AA, -1.3; with 4H909-AA, -0.525. Further, the interaction score was -0.719 with 4H930-AA and 1.43 in the assay with 4H94-AA.

For DKNQELKKENEELKRKIWELKKEIQELER [4H3817-bH], the interaction score with 4H3817-bH is 0.775; in the assay with 4H3858-bH, -0.973; in the assay with 4H3974-bH, 0.787; with 4H4073-bH it was -1.13; with 4H570-bH, -0.71; with 4H584-bH it was -0.723. Besides, the figures for the interaction score in the assay with 4H619-bH, in the assay with 4H850-bH and with 4H906-bH were 0.591, -0.885 and -0.699, respectively.
